Reference: the supplement of paper PMC9170038

Test system: K4 kissing-loop RNA reporter
Assay: apparent KD of K4 kissing-loop reporter; higher = weaker reporter binding
Conditions: Eterna round: R107
Method: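 RNA-MaP round R107: designed RNA switches with theophylline, tryptophan, arginine or FMN aptamers are transcribed on-chip within common flanks. They are titrated with a labelled K4 kissing-loop RNA reporter in RNA-MaP buffer (100 mM Tris pH 7.5, 80 mM KCl, 4 mM MgCl2), without ligand or with the indicated ligand. Median apparent KD per design.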

[1] = input ligand: theophylline 20 uM
[2] = input ligand: tryptophan 2.4 mM
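Further: bound reporter read as fluorescence of individual clusters on recovered sequencing chips by microscopy, with normalized cluster intensities fitted with a binding model.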

| Sequence | apparent KD of K4 kissing-loop reporter (input ligand: FMN 200 uM) [nM] | apparent KD of K4 kissing-loop reporter (input ligand: arginine 13.2 mM) [nM] | apparent KD of K4 kissing-loop reporter (input ligand: none) [nM] | apparent KD of K4 kissing-loop reporter [1] [nM] | apparent KD of K4 kissing-loop reporter [2] [nM] |
| --- | --- | --- | --- | --- | --- |
| UGUCAUUGGUCGGCCGCCACUCCAUAAAGAGUGAUGUUCUGAAAGACGGAUCGAAAGAUCUGUCGGAGGACCGGGACCGAUGACU [FiskerMod 3 - Jieux - Same State - Tryptophan B] | 1310 | 665 | 1540 | 896 | 237 |
| AGAACUGUCUUGGAUACCAGUGAUGUUGGUAUCGAUGUGUGAGUGCAAAGCGUCCCACAUCGCCCUUGGCAGCUAAGACUGUUCA [Omei KL Theo B Exc A v4] | 287 | 238 | 302 | 349 | 257 |
| UCUUGCGGCGCAGGAUAUCCGUCUGUCUCCUGCGUCAUUCUGCAGUGAUGUUGCAGGUGACGGAUAGGAGAAGGGCGAACGUACA [Diinonorce] | 133 | 104 | 124 | 117 | 112 |
| GGUGCCGGGCAAGGAUAUUAGUCGAGUGAUGUUCGGCGGUCCAAGUCGUUGCGGCGUUAAACCCUUUGAGAAGGUGCCCGGUGCC [#2 Exclusion - FMN B Attempt #1 (HarryS)] | 198 | 144 | 193 | 195 | 163 |
| GCUAAGGAGUGAUGUUCCAAGUGAUGUUAACGAGGACCGGUACGGCCGCCACUCGAUACGGCCGGAAAGUAAGAUAAACUACAGC [Same State - Tryptophan A (Freestyle 5)] | 98.6 | 72.6 | 93.2 | 89.3 | 82.8 |
| UACUAACGUUAAGGAUAUGCGUCGAUUACCGGUAAGUGAUGUUUAGCGCCCGGGCAACGGUGGGUCGCAGAAGGUAAACACAGUU [theeternabot_sameState_KL_FMN_B_19] | 689 | 551 | 795 | 640 | 610 |
| UCUGUUGUAUAUGAUACCAGCAGUGAGAGACAGGAAGUAUAGUGAUGUUAUAUGAGAGAAUGCCCUUGGCAGCGUGUGCGGGUGG [SSTheophylB.X] | 138 | 130 | 165 | 116 | 99.1 |
| GAUCUGAACGAAAGUUCGGAUCAGUCCGAUACCAGUAUGGAUUCAUACCCUUGGCAGCGGAAAUCUGCUAUGGAGUGAUGUUCCA [Theophylline A K4 14] | 532 | 328 | 379 | 418 | 391 |
| UUUGGAGUGGGAGGAUAUCCUAAUAUGGGUGAUGUUAGCGAUGUUGAAGGUGUAGUGAUGUUAUGCGGAGAAGGCCCACUGUAGA [BDazzled - #19 - Exc. FMN B] | 95 | 78.8 | 131 | 85.6 | 89.2 |
| AAAUUUAAUAUAUUUAAUUAAUUAAGUGAUACCAGACAUUAAUAAGUCCCUUGGCAGCGCAAUGCAGUGAUGUUGCUUAUAAUAA [#18 K4 Theophylline A Same State] | 56.1 | 82.9 | 50.1 | 136 | 48 |
| UGGAUAUAGUGAUGUUAUAUAGAGAUAGAUACCAGUUAAGAGAAUAGCCCUUGGCAGCUGAAAGAAGUAUCAUUAGAGAAGAAUG [ExTheophyl.Ab] | 212 | 147 | 207 | 170 | 137 |
| UGACAUUGCUCAGAUACCAGACUUGAGGAACACCCAAGUGCCAAAUAAACGUACAUAAAAGUCCCUUGGCAGCUGAGCAAUGUCU [TheoBX 11] | 66 | 34.1 | 62.5 | 104 | 45.3 |
| AAUAAUAGUUGAGCAGGCGUGGUCUGAGAUACCAGUGAUUUCGAUCACCCUUGGCAGCUCAGCAUGAGUGAUGUUCAUGCUAUUC [Theo A Ex t10] | 147 | 114 | 134 | 145 | 131 |
| CCGCUACCCUCAGGAUAUUAAAUAUUAGUGAUGUUAAUAAACCGAUGGCGAAAGCCAUCGGUAUGUUAAGAAGGGAGGGUAGCGG | 138 | 847 | 974 | 949 | 965 |
| AAGUAGUCCCUUGUUGUCAUCGAAGAUGAACGAGGACCGGUACGGCCGCCACUCGGAGUGAUGUUCCGAUGGCUGCAAAAUAAAA [MatMod 22 - Jieux - Exclusion - Tryptophan A] | 103 | 88.9 | 92 | 91.4 | 101 |
| UUUAUUAAGACGGCCGCCACUGAAUUAGAGUGAUGUUCUAAAAUUACUAAAUUAAAUUUAUUCAACAGGACCGGGUCAAUUAUUA [JR_SSTryptoB_Sub010] | 399 | 405 | 461 | 432 | 513 |
| GAAUAAUAUGUACCAGUGAUGUUGGUACAACGAGGACCGGUACGGCCGCCACUCGGAUACGAGUGGAUACAUCACUGACCAUUCG [(H1)-(H2)-(Trp1)-(Trp2)-(T)'-(H)'-(T)''_Design9] | 326 | 308 | 368 | 413 | 252 |
| GUGCGGUGGAGGUUACCGCUAUUCUGAGAAGGAGCGCAGAUGACUGCAGGUAGGUCGCUUAGAGCUUGCAGUGAUGUUGCAAGUU [Berienza] | 220 | 174 | 199 | 166 | 200 |
| AACUUAAUUUAUAAGCAGUGAUGUUGCUCACGAGGACCGGUACGGCCGCCACUCGAUCGGACUUAGGUCUUCAAUUAUUUCUUAA [JR_ExcTryptoA_Sub018] | 114 | 157 | 137 | 140 | 121 |
| CAAAUAUGCGGUAGGUUCAAGCGCUGGGAAGGAGCGCAGAUGACUGCAGGUAGGUCGCCCAGUGAUGUUGGGCUUUCCACCUAUG [Esisusa] | 132 | 109 | 107 | 136 | 100 |
| GAACGAGUGAUGUUCGUUGGCAUGCAUUCCGAGGAUAUGGGAUUAGCCAGAAGGCGGAAUCAGUCUUCGAGUGAUGUUCGAAGAU [Same State FMN A GF 12] | 112 | 104 | 116 | 104 | 111 |
